Test results taken from patent US20260098059A1 (ENDOMET BIOSCIENCES, published 2026).
“And” between values parts separate entries of the source, which are not always exact repeats. Equal entries are not always repeated. [ ]: non-standard residue; d: D form. The star is where a group is joined. NMeW = CN[C@@H](Cc1c[nH]c2ccccc12)C(=O)O; Stearoyl = CCCCCCCCCCCCCCCCCC(=O)*; Palmitoyl = CCCCCCCCCCCCCCCC(=O)*; αMeV = CC(C)[C@](C)(N)C(=O)O; αMeS = C[C@](N)(CO)C(=O)O; GABA = NCCCC(=O)O; βAla = NCCC(=O)O

These binders were tested against T1, β-catenin (UniProt P35222 134-665, limits assumed, biotinylated in the SPR and plate assays) (assay: cell-based or functional assay).
T1 sequence (looked up): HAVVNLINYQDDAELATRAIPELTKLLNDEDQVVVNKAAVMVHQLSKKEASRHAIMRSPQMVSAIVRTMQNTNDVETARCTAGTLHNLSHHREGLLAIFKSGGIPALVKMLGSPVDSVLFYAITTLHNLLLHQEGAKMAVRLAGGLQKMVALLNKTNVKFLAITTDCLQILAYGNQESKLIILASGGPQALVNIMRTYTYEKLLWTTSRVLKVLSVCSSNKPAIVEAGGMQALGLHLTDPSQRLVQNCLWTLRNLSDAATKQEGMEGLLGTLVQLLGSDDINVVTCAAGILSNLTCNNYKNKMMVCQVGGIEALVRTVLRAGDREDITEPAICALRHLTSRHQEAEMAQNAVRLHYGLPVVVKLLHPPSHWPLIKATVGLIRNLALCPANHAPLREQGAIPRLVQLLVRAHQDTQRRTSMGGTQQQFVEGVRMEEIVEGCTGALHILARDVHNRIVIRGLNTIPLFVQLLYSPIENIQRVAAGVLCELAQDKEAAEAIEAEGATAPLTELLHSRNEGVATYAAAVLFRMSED

| Wnt Reporter EC50 | Proliferation IC50, Endo cells [µM] | Proliferation IC50, Wnt dependent cells [µM] | Binder |
| --- | --- | --- | --- |
| ≤ 7.5 µM | – | – | H-MSRMWFLISFWEG-OH [SEQ ID NO: 57] |
| > 22.5 µM and ≤ 30 µM | – | – | H-MSRMWFLISFWRG-OH [SEQ ID NO: 58] |
| > 7.5 µM and ≤ 15 µM | – | – | Palmitoyl-[βAla]W[NMeW]E[αMeS]ILDEH[αMeV]QRVW-OH (SMILES CCCCCCCCCCCCCCCC(=O)NCCC(=O)N[C@@H](Cc1c[nH]c2ccccc12)C(=O)N(C)[C@@H](Cc1c[nH]c2ccccc12)C(=O)N[C@@H](CCC(=O)O)C(=O)N[C@@](C)(CO)C(=O)N[C@H](C(=O)N[C@@H](CC(C)C)C(=O)N[C@@H](CC(=O)O)C(=O)N[C@@H](CCC(=O)O)C(=O)N[C@@H](Cc1c[nH]cn1)C(=O)N[C@](C)(C(=O)N[C@@H](CCC(N)=O)C(=O)N[C@@H](CCCNC(=N)N)C(=O)N[C@H](C(=O)N[C@@H](Cc1c[nH]c2ccccc12)C(=O)O)C(C)C)C(C)C)[C@@H](C)CC) [SEQ ID NO: 399] |
| > 7.5 µM and ≤ 15 µM | – | – | {Palmitoyl-GABA}-W[NMeW]E[αMeS]ILDEH[αMeV]QRVW-OH [SEQ ID NO: 400] |
| > 7.5 µM and ≤ 15 µM | – | – | Palmitoyl-W[NMeW]E[αMeS]ILDEH[αMeV]QRVW-OH [SEQ ID NO: 397] |
| > 7.5 µM and ≤ 15 µM | – | – | Palmitoyl-GW[NMeW]E[αMeS]ILDEH[αMeV]QRVW-OH [SEQ ID NO: 398] |
| ≤ 7.5 µM | – | – | WAESILKEHVQRVWG (HELM PEPTIDE1{[CCCCCCCCCCCC(=O)[*:2]].W.[meA].E.S.I.L.K.E.H.V.Q.R.V.W.G.[am]}$PEPTIDE1,PEPTIDE1,4:R3-8:R3$$$V2.0; SMILES CCCCCCCCCCCC(=O)N[C@@H](Cc1c[nH]c2ccccc12)C(=O)N(C)[C@@H](C)C(=O)N[C@H]1CCC(=O)NCCCC[C@@H](C(=O)N[C@@H](CCC(=O)O)C(=O)N[C@@H](Cc2c[nH]cn2)C(=O)N[C@H](C(=O)N[C@@H](CCC(N)=O)C(=O)N[C@@H](CCCNC(=N)N)C(=O)N[C@H](C(=O)N[C@@H](Cc2c[nH]c3ccccc23)C(=O)NCC(N)=O)C(C)C)C(C)C)NC(=O)[C@H](CC(C)C)NC(=O)[C@H]([C@@H](C)CC)NC(=O)[C@H](CO)NC1=O) [SEQ ID NO: 451] |
| > 7.5 µM and ≤ 15 µM | 15 | 2.9 | Palmitoyl-W[NMeW]E[αMeS]ILDEH[αMeV]QRVWG-OH [SEQ ID NO: 396] |
| ≤ 7.5 µM | – | 4.8 | Stearoyl-[βAla]W[NMeW]E[αMeS]ILDEH[αMeV]QRVWG-OH (SMILES CCCCCCCCCCCCCCCCCC(=O)NCCC(=O)N[C@@H](Cc1c[nH]c2ccccc12)C(=O)N(C)[C@@H](Cc1c[nH]c2ccccc12)C(=O)N[C@@H](CCC(=O)O)C(=O)N[C@@](C)(CO)C(=O)N[C@H](C(=O)N[C@@H](CC(C)C)C(=O)N[C@@H](CC(=O)O)C(=O)N[C@@H](CCC(=O)O)C(=O)N[C@@H](Cc1c[nH]cn1)C(=O)N[C@](C)(C(=O)N[C@@H](CCC(N)=O)C(=O)N[C@@H](CCCNC(=N)N)C(=O)N[C@H](C(=O)N[C@@H](Cc1c[nH]c2ccccc12)C(=O)NCC(=O)O)C(C)C)C(C)C)[C@@H](C)CC) [SEQ ID NO: 391] |
| > 7.5 µM and ≤ 15 µM | – | 4.7 | Stearoyl-W[NMeW]E[αMeS]ILDEH[αMeV]QRVWG-OH [SEQ ID NO: 390] |
| > 7.5 µM and ≤ 15 µM | – | – | Stearoyl-[βAla]W[NMeW]E[αMeS]ILDEH[αMeV]QRVW-OH (SMILES CCCCCCCCCCCCCCCCCC(=O)NCCC(=O)N[C@@H](Cc1c[nH]c2ccccc12)C(=O)N(C)[C@@H](Cc1c[nH]c2ccccc12)C(=O)N[C@@H](CCC(=O)O)C(=O)N[C@@](C)(CO)C(=O)N[C@H](C(=O)N[C@@H](CC(C)C)C(=O)N[C@@H](CC(=O)O)C(=O)N[C@@H](CCC(=O)O)C(=O)N[C@@H](Cc1c[nH]cn1)C(=O)N[C@](C)(C(=O)N[C@@H](CCC(N)=O)C(=O)N[C@@H](CCCNC(=N)N)C(=O)N[C@H](C(=O)N[C@@H](Cc1c[nH]c2ccccc12)C(=O)O)C(C)C)C(C)C)[C@@H](C)CC) [SEQ ID NO: 394] |
| > 30 µM | – | – | AEEDPQTILDDHLSRVLK (HELM PEPTIDE1{[ac].[bAla].E.E.D.P.Q.T.I.L.D.D.H.L.S.R.V.L.K.[am]}$$$$V2.0; SMILES CC[C@H](C)[C@H](NC(=O)[C@@H](NC(=O)[C@H](CCC(N)=O)NC(=O)[C@@H]1CCCN1C(=O)[C@H](CC(=O)O)NC(=O)[C@H](CCC(=O)O)NC(=O)[C@H](CCC(=O)O)NC(=O)CCNC(C)=O)[C@@H](C)O)C(=O)N[C@@H](CC(C)C)C(=O)N[C@@H](CC(=O)O)C(=O)N[C@@H](CC(=O)O)C(=O)N[C@@H](Cc1c[nH]cn1)C(=O)N[C@@H](CC(C)C)C(=O)N[C@@H](CO)C(=O)N[C@@H](CCCNC(=N)N)C(=O)N[C@H](C(=O)N[C@@H](CC(C)C)C(=O)N[C@@H](CCCCN)C(N)=O)C(C)C) [SEQ ID NO: 412] |
| ≤ 7.5 µM | – | – | H-MSRMWFLISFWG-OH [SEQ ID NO: 41] |
| > 7.5 µM and ≤ 15 µM | – | – | H-MSRMWFLVSFWG-OH [SEQ ID NO: 56] |
| > 15 µM and ≤ 22.5 µM | – | – | H-MSRMLFLISFWG-OH [SEQ ID NO: 52] |
| ≤ 7.5 µM | – | – | H-MSRMWFLFSFWG-OH [SEQ ID NO: 63] |

| Wnt Reporter EC50 | Proliferation IC50, Endo cells [µM] | Proliferation IC50, Wnt dependent cells [µM] | Binder |
| --- | --- | --- | --- |
| ≤ 7.5 µM | – | – | H-MGRMWFLISFWG-OH [SEQ ID NO: 67] |
| > 7.5 µM and ≤ 15 µM | – | – | H-MSRMWLLISFWG-OH [SEQ ID NO: 60] |
| > 7.5 µM and ≤ 15 µM | – | – | H-MNRMWFLISFWG-OH [SEQ ID NO: 61] |
| > 7.5 µM and ≤ 15 µM | – | – | H-MSRVWFLISFWG-OH [SEQ ID NO: 64] |
| > 30 µM | – | – | H-MSRMWFLNSFWG-OH [SEQ ID NO: 70] |
| > 30 µM | – | – | H-MSRKWFLISFWG-OH [SEQ ID NO: 59] |
| > 7.5 µM and ≤ 15 µM | – | – | H-MSRTWFLISFWG-OH [SEQ ID NO: 48] |
| > 30 µM | – | – | MSRMAFLISFWG (HELM PEPTIDE1{M.S.R.M.[meA].F.L.I.S.F.W.G}$$$$V2.0; SMILES CC[C@H](C)[C@H](NC(=O)[C@H](CC(C)C)NC(=O)[C@H](Cc1ccccc1)NC(=O)[C@H](C)N(C)C(=O)[C@H](CCSC)NC(=O)[C@H](CCCNC(=N)N)NC(=O)[C@H](CO)NC(=O)[C@@H](N)CCSC)C(=O)N[C@@H](CO)C(=O)N[C@@H](Cc1ccccc1)C(=O)N[C@@H](Cc1c[nH]c2ccccc12)C(=O)NCC(=O)O) [SEQ ID NO: 50] |
| > 30 µM | – | – | H-MSRMWFLTSFWG-OH [SEQ ID NO: 62] |
| > 7.5 µM and ≤ 15 µM | – | – | H-MSRMWFLISLWG-OH [SEQ ID NO: 68] |
| ≤ 7.5 µM | – | – | H-MSRIWFLISFWG-OH [SEQ ID NO: 55] |
| > 30 µM | – | – | H-MSRMWFPISFWG-OH [SEQ ID NO: 65] |
| > 15 µM and ≤ 22.5 µM | – | – | H-MSRMWFLISSWG-OH [SEQ ID NO: 54] |
| > 7.5 µM and ≤ 15 µM | – | 6.8 | {Stearoyl-GABA}-W[NMeW]E[αMeS]ILDEH[αMeV]QRVW-OH [SEQ ID NO: 395] |
| ≤ 7.5 µM | – | – | {Stearoyl-GABA}-W[NMeW]E[αMeS]ILDEH[αMeV]QRVWG-OH [SEQ ID NO: 392] |
